Experimental data as given in patent US20150299277A1, “AGENT FOR TREATING OR PREVENTING SYSTEMIC INFLAMMATORY RESPONSE SYNDROME” (THE UNIVERSITY OF TOKYO, priority 2012, published 2015).
Entries after “also recorded” stand apart in the source; their conditions may differ.

Assays:
[1] = system: Calf Thymus Histones; test: Aggregation with histone, absorbance at 310 nm; type: binding; settings: mixture with Calf Thymus Histones
Description: The lower left figure and the lower right figure show the measurement results of absorbance at 310 nm of a mixture of a wild-type or oligomer formation capacity-deficient mutant of PTX3 N-terminal domain having each concentration and 0.1 mg/mL Calf Thymus Histones at 1:1 vol.
The aggregation activity of PTX3 and other pentraxins to histone was evaluated. Calf Thymus Histones (50 μg/mL) were mixed with a PTX3 fragment or the other pentraxin at each concentration, and the absorbance at the wavelength of 310 nm was measured. Before mixing, samples were dialyzed against 4 mM CaCl2-containing TBS.

[2] = system: each histone variant; test: Aggregation of each histone variant and PTX3 fragment, absorbance at 310 nm; type: binding; settings: histone variant 50 μg/mL, PTX3 fragment 30 μg/mL
Description: Each histone variant (50 μg/mL) and each PTX3 fragment (30 μg/mL) were mixed, and the absorbance at the wavelength of 310 nm was measured. Before mixing, samples were dialyzed against 4 mM CaCl2-containing TBS.

[3] = system: fragment H4-9 on HUVEC; test: Suppression of cytotoxic activity of histone fragment on HUVEC; type: cell-based, human; settings: fragment 250 μg/mL; full-length PTX3 at 80 μg/mL; HUVEC 1 hr
Description: (§1) Then, a suppressive effect of PTX3 on the cytotoxic activity of fragments […], H3-8, H3-11 and H4-9 was evaluated.
(§2) In the same manner as in FIGS. 7B-D, a suppressive effect of the N-terminal domain of PTX3 on the cytotoxic activity of histone H3 and H4 fragments was evaluated.

[4] = system: fragment H3-6 on HUVEC; test: as above; type: cell-based, human; settings: fragment 250 μg/mL; full-length PTX3 at 80 μg/mL; HUVEC 1 hr
Description: as §1, §2

[5] = system: fragment H3-11 on HUVEC; test: as above; type: cell-based, human; settings: fragment 250 μg/mL; full-length PTX3 at 80 μg/mL; HUVEC 1 hr
Description: as §1, §2

[6] = system: fragment H3-8 on HUVEC; test: as above; type: cell-based, human; settings: fragment 250 μg/mL; full-length PTX3 at 80 μg/mL; HUVEC 1 hr
Description: as §1, §2

[7] = system: Calf Thymus Histones on HUVEC; test: Cytotoxic assay: suppression of histone cytotoxicity on HUVEC; type: cell-based, human; settings: 100 μg/mL Calf Thymus Histones, 40 μg/mL protein, 1 hr, PI staining, FACS
Description: After culturing for 1 hr in a medium concurrently containing 100 μg/mL Calf Thymus Histones and APC (200 nM), PTX3 (40 μg/mL), CRP (40 μg/mL) or SAP (40 μg/mL), the level of toxic activity was measured by FACS.
Normal human umbilical vein endothelial cells (HUVECs) were cultured in EGM2 medium (Clonetics). The cells after culture were washed with PBS, added with Opti-MEM medium containing an product of incubation of activated protein C (APC), PTX3, C reactive protein (CRP) or Serum amyloid P component (SAP) with histone for 1 hr, and the cells were further cultured for 1 hr. Propidium iodide (PI) was added to the medium after culture at a final concentration of 10 μg/mL, and the cells were stained for 10 min. The cells were washed with PBS, detached and analyzed by flow cytometry.
The histone cytotoxicity on HUVEC was evaluated by propidium iodide (PI) staining.
Lastly, capacity of suppressing the cytotoxic activity of histone was confirmed. Since this experiment requires a certain amount of protein and an endotoxin-elimination as treatment, a protein was expressed and purified at a 500 mL culture scale, and subjected to an endotoxin-elimination treatment (FIG. 18). In the case of PTX3 N-terminal domain, about 10 mg was obtained at a 500 mL culture scale, and a loss by the endotoxin-elimination treatment was scarcely observed. […] A capacity of fragment proteins obtained at a 500 mL scale on HUVEC to suppress histone cytotoxicity was studied. […] In consideration of the experiments relating to the binding and aggregation, all fragments were considered to possibly have a certain level of suppressive capacity.

[8] = system: each histone; test: ELISA binding assay; design: species or system human; settings: buffers containing 4 mM CaCl2 or 4 mM EDTA
Description: Recombinant human histone (NEB) was adjusted to a concentration of 1 μg/mL in TBS, added to a 96 well ELISA plate, and immobilized at 4° C. overnight. The solution was discarded, a blocking buffer (TBS, 0.1% Triton-X100, 1% BSA) was added, and the plate was incubated at room temperature for 2 hr. The plate was washed four times with a wash buffer (TBS, 0.1% Triton-X100), recombinant PTX3 diluted to various concentrations with the blocking buffer was added to each well, and reacted at room temperature for 1 hr. After washing four times with the wash buffer, HRP-labeled antibody diluted with the blocking buffer was added, and reacted at room temperature for 1 hr. After washing four times with the wash buffer, TMB solution was added to carry out a color development reaction for 30 min, and the absorbance at 450 nm was measured. […]
The binding level between immobilized each recombinant histone and tag-free recombinant human PTX3 (rhPTX3) was measured by binding assay (ELISA). […] ELISA was performed with duplicate wells for each point, and means and standard deviations were calculated from three independent experiments.
The binding level between immobilized each recombinant histone and a tagged human PTX3 fragment was measured by binding assay (ELISA). […] ELISA was performed with duplicate wells for each point, and means and standard deviations were calculated from three independent experiments.

[9] = system: each histone; test: BIAcore / surface plasmon resonance (SPR) measurement; type: binding, human; settings: immobilized recombinant histone
Description: For the measurement, BIAcore 3000 or T200 (GE Healthcare) was used. Recombinant human histone was immobilized on CM5 sensor chip by an amine coupling kit (GE Healthcare). The reaction with recombinant PTX3 was performed using a buffer (150 mM NaCl, 20 mM HEPES, 0.005% surfactant P20 (pH 7.4)) at a flow rate of 20 μl/min. Measurement was performed using the buffer containing […]. The sensor chip was regenerated in IM sodium acetate (10 μL, pH 7.2) and 10 mM NaOH (10 μL).
The binding of immobilized each recombinant histone, and Myc- and His-tagged human PTX3 fragment was measured by surface plasmon resonance (SPR). The highest concentration of each PTX3 was as follows. full-length PTX3: 1 nM, N-terminal domain of PTX3: 5 nM, C-terminal domain of PTX3: 50 nM. The assay buffer contained 4 mM CaCl2 (Ca^2+) or 4 mM EDTA/EGTA. The affinity measured by SPR was calculated from three experiments.

[10] = biological target: T1, histone H3 (Homo sapiens, UniProt P68431); test: ELISA binding assay; settings: immobilized recombinant histone, absorbance at 450 nm
T1 construct: purchased NEB
Description: (§3) Recombinant human histone (NEB) was adjusted to a concentration of 1 μg/mL in TBS, added to a 96 well ELISA plate, and immobilized at 4° C. overnight. The solution was discarded, a blocking buffer (TBS, 0.1% Triton-X100, 1% BSA) was added, and the plate was incubated at room temperature for 2 hr. The plate was washed four times with a wash buffer (TBS, 0.1% Triton-X100), recombinant PTX3 diluted to various concentrations with the blocking buffer was added to each well, and reacted at room temperature for 1 hr. After washing four times with the wash buffer, HRP-labeled antibody diluted with the blocking buffer was added, and reacted at room temperature for 1 hr. After washing four times with the wash buffer, TMB solution was added to carry out a color development reaction for 30 min, and the absorbance at 450 nm was measured. Assay was performed using all the buffers containing 4 mM CaCl2 or 4 mM EDTA.
(§4) The binding level between immobilized each recombinant histone and tag-free recombinant human PTX3 (rhPTX3) was measured by binding assay (ELISA). For the detection, HRP-labeled anti-PTX3 monoclonal antibody (PPZ1228) was used. ELISA was performed with duplicate wells for each point, and means and standard deviations were calculated from three independent experiments.
(§5) The binding level between immobilized each recombinant histone and a tagged human PTX3 fragment was measured by binding assay (ELISA). For detection, HRP-labeled anti-His (6×His) antibody was used. ELISA was performed with duplicate wells for each point, and means and standard deviations were calculated from three independent experiments.

[11] = biological target: T2, histone H1 (Homo sapiens, UniProt P07305); test: ELISA binding assay; settings: immobilized recombinant histone, absorbance at 450 nm
T2 construct: purchased NEB
Description: as §3, §4, §5

T2 sequence (P07305 whole entry): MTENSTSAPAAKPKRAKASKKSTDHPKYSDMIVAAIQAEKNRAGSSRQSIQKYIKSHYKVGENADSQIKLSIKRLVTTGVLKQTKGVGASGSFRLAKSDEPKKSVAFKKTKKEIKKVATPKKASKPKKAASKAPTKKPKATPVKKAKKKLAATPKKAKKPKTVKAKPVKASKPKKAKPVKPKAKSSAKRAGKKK

| Substance | aggregation with Calf Thymus Histones, absorbance at 310 nm [1] | aggregation with Calf Thymus Histones, absorbance at 310 nm ([1]; listed as N-terminal domain) | aggregation with each histone variant, absorbance at 310 nm [2] | suppressive effect on cytotoxic activity of fragment H4-9 [3] | suppressive effect on cytotoxic activity of fragment H3-6 [4] | suppressive effect on cytotoxic activity of fragment H3-11 [5] | suppressive effect on cytotoxic activity of fragment H3-8 [6] | suppression of toxic activity of Calf Thymus Histones on HUVEC [7] | influence of calcium ion on binding to each histone [8] | affinity for each histone by SPR [9] | binding to histone H3 (binding assay) [10] | binding to histone H3 (binding assay) ([10]; listed as N-terminal domain) | binding to histone H1 (binding assay) [11] | binding to histone H1 (binding assay) ([11]; listed as N-terminal domain) | suppression of toxic activity of Calf Thymus Histones on HUVEC ([7]; listed as PTX3) | affinity for each histone by SPR ([9]; listed as PTX3) |
| --- | --- | --- | --- | --- | --- | --- | --- | --- | --- | --- | --- | --- | --- | --- | --- | --- |
| N-terminal domain of PTX3: N-terminal domain human PTX3 (18-178 amino acids, SEQ ID NO: 3), tagged, expressed in CHO cells or Escherichia coli | showed an aggregation activity with histone | an aggregation reaction | aggregated | neutralized | neutralized | neutralized | neutralized | suppress toxic activity of histone on HUVEC; also recorded: suppressed | stronger binding was found in the presence of calcium ion | full-length PTX3>N-terminal domain>C-terminal domain | equivalent to that of the full-length PTX3 | strong bindability | equivalent to that of the full-length PTX3 | strong bindability |  |  |
| full-length PTX3: full-length human pentraxin 3 (1-381 amino acids, SEQ ID NO: 2), used tag-free or Myc- and His-tagged | showed an aggregation activity with histone |  | aggregated | neutralized | neutralized | neutralized | neutralized | suppress toxic activity of histone on HUVEC | stronger binding was found in the presence of calcium ion | full-length PTX3>N-terminal domain>C-terminal domain | strong binding affinity |  | strong binding affinity |  | suppresses cytotoxic activity of extracellular histone on HUVEC to the same level as APC | extremely high |
